Data set [1] concerns the target T1, GLO4 (Oryza sativa, UniProt Q6YT73).
T1 construct: gene GLO5; complete ORF, N-terminal 6xHis tag kept, expressed in Saccharomyces cerevisiae INVSc1, Ni-IDA purified, subunit about 40 kDa, homo-oligomer; GLO4/GLO5 names may be swapped in databases, go by printed locus
T1 sequence (Q6YT73 1-369): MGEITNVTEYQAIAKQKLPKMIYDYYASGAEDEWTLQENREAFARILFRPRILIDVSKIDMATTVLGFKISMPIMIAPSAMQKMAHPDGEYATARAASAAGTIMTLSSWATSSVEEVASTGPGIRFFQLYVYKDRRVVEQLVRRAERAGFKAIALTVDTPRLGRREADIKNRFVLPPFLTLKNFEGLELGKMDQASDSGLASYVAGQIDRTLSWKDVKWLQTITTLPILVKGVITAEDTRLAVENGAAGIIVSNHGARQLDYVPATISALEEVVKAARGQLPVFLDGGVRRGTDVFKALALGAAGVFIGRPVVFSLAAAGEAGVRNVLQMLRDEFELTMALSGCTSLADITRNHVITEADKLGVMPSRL
Description: peroxidase-coupled H2O2 assay, […] nm; slope replot of Lineweaver-Burk. The format is biochemical.

The target in data set [2] is T2, GLO1 + 4 (Oryza sativa, UniProt Q10CE4+Q6YT73).
T2 construct: co-expressed N-terminally 6xHis-tagged GLO1 (pYES3) and GLO4 (pYES2) in Saccharomyces cerevisiae, Ni-IDA purified; GLO4/GLO5 names may be swapped in databases
T2 sequence (Q10CE4 1-369): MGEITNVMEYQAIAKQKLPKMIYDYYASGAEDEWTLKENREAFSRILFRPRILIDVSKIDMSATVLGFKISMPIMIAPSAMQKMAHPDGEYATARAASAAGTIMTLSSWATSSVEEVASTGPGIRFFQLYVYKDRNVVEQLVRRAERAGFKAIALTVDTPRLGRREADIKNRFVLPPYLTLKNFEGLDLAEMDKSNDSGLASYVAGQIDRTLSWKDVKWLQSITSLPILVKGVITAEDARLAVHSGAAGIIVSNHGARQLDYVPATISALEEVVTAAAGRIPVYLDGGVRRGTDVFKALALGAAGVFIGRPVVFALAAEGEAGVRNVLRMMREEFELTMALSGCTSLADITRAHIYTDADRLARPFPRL
T2 sequence (Q6YT73 1-369): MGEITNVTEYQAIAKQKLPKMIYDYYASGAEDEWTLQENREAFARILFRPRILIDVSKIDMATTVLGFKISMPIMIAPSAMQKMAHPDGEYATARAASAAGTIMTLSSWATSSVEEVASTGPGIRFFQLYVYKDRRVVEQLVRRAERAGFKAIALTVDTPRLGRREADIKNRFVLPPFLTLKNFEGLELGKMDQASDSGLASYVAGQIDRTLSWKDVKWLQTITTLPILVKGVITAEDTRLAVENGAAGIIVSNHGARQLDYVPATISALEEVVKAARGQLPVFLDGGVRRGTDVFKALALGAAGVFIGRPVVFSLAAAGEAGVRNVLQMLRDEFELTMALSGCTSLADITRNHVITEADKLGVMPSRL
Described as above. The format is biochemical.

Data set [3] has as its target T3, GLO3 (Oryza sativa, UniProt Q7FAS1).
T3 construct: complete ORF, N-terminal 6xHis tag kept, expressed in Saccharomyces cerevisiae INVSc1, Ni-IDA purified, subunit about 40 kDa
T3 sequence (Q7FAS1 1-367): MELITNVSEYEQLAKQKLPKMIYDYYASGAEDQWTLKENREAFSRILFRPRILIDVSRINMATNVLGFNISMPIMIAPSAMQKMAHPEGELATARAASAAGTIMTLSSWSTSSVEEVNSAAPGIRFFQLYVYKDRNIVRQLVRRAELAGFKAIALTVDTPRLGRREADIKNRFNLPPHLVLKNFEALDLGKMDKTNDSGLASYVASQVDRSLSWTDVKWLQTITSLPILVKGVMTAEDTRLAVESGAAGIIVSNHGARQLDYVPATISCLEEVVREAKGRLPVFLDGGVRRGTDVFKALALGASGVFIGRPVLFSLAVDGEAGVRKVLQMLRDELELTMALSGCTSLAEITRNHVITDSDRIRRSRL
Described as above. The format is biochemical.

The target of data set [4] is T4, GLO1 (Oryza sativa, UniProt Q10CE4).
T4 construct: complete ORF, N-terminal 6xHis tag kept, expressed in Saccharomyces cerevisiae INVSc1, Ni-IDA purified, subunit about 40 kDa, homo-oligomer
T4 sequence (Q10CE4 1-369): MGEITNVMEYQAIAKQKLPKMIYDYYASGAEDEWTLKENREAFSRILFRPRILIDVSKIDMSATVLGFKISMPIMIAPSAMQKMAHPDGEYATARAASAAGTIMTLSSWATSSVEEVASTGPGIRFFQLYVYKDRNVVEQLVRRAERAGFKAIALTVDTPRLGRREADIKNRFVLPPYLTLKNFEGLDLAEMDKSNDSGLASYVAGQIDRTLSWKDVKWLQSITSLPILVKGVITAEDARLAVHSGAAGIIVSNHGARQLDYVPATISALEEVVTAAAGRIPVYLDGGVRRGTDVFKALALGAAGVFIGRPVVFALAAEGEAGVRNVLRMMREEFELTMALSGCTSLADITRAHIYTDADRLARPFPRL
The data set is described as above. The format is biochemical.

Substrate in data set [5]: O=C(O)[C@H](O)CO
Description: purified protein. The format is biochemical, Oryza sativa. The settings on record: pH 7.8, 30 °C, 0.1 mM FMN.

Substrate in data set [6]: O=CC(=O)O
The data set can be described thus: purified protein. The format is biochemical, Oryza sativa. The settings on record: pH 7.8, 30 °C, 0.1 mM FMN.

Substrate in data set [7]: O=C(O)CO
Description: purified protein. The conditions noted are these: pH 7.8, 30 °C, 0.1 mM FMN.

Substrate in data set [8]: C[C@H](O)C(=O)O
The data set can be described thus: purified protein. The conditions noted are these: pH 7.8, 30 °C, 0.1 mM FMN.

In the case of `O=C(O)C(=O)O` [oxalate], the Ki worked out at 6.34 ± 1.74 mM in data set [1], 5.49 ± 1.04 mM in data set [2], 5.6 ± 1.23 mM in data set [3] and 4.57 ± 0.93 mM in data set [4].

B1: GLO4 (Oryza sativa Japonica Group) (protein)
chain: MGEITNVTEYQAIAKQKLPKMIYDYYASGAEDEWTLQENREAFARILFRPRILIDVSKIDMATTVLGFKISMPIMIAPSAMQKMAHPDGEYATARAASAAGTIMTLSSWATSSVEEVASTGPGIRFFQLYVYKDRRVVEQLVRRAERAGFKAIALTVDTPRLGRREADIKNRFVLPPFLTLKNFEGLELGKMDQASDSGLASYVAGQIDRTLSWKDVKWLQTITTLPILVKGVITAEDTRLAVENGAAGIIVSNHGARQLDYVPATISALEEVVKAARGQLPVFLDGGVRRGTDVFKALALGAAGVFIGRPVVFSLAAAGEAGVRNVLQMLRDEFELTMALSGCTSLADITRNHVITEADKLGVMPSRL
notes: complete ORF, N-terminal 6xHis tag kept, expressed in Saccharomyces cerevisiae INVSc1, Ni-IDA purified, subunit about 40 kDa, homo-oligomer; GLO4/GLO5 names may be swapped in databases, go by printed locus
On to B1, for which the Km in data set [5] was found to be 4.367 ± 0.395 mM; in data set [6], 5.983 ± 0.333 mM; in data set [7], 0.613 ± 0.050 mM; in data set [8], 4.720 ± 0.291 mM.

B2: GLO1 (Oryza sativa Japonica Group) (protein)
chain: MGEITNVMEYQAIAKQKLPKMIYDYYASGAEDEWTLKENREAFSRILFRPRILIDVSKIDMSATVLGFKISMPIMIAPSAMQKMAHPDGEYATARAASAAGTIMTLSSWATSSVEEVASTGPGIRFFQLYVYKDRNVVEQLVRRAERAGFKAIALTVDTPRLGRREADIKNRFVLPPYLTLKNFEGLDLAEMDKSNDSGLASYVAGQIDRTLSWKDVKWLQSITSLPILVKGVITAEDARLAVHSGAAGIIVSNHGARQLDYVPATISALEEVVTAAAGRIPVYLDGGVRRGTDVFKALALGAAGVFIGRPVVFALAAEGEAGVRNVLRMMREEFELTMALSGCTSLADITRAHIYTDADRLARPFPRL
notes: complete ORF, N-terminal 6xHis tag kept, expressed in Saccharomyces cerevisiae INVSc1, Ni-IDA purified, subunit about 40 kDa, homo-oligomer
Take B2: the Km in data set [5] is given as 4.976 ± 0.305 mM; in data set [6] it was 6.505 ± 0.412 mM; in data set [7], 0.499 ± 0.041 mM; in data set [8], 5.128 ± 0.315 mM.

B3: GLO1 + 4 (Oryza sativa Japonica Group) (protein)
chain 1: MGEITNVMEYQAIAKQKLPKMIYDYYASGAEDEWTLKENREAFSRILFRPRILIDVSKIDMSATVLGFKISMPIMIAPSAMQKMAHPDGEYATARAASAAGTIMTLSSWATSSVEEVASTGPGIRFFQLYVYKDRNVVEQLVRRAERAGFKAIALTVDTPRLGRREADIKNRFVLPPYLTLKNFEGLDLAEMDKSNDSGLASYVAGQIDRTLSWKDVKWLQSITSLPILVKGVITAEDARLAVHSGAAGIIVSNHGARQLDYVPATISALEEVVTAAAGRIPVYLDGGVRRGTDVFKALALGAAGVFIGRPVVFALAAEGEAGVRNVLRMMREEFELTMALSGCTSLADITRAHIYTDADRLARPFPRL
chain 2: MGEITNVTEYQAIAKQKLPKMIYDYYASGAEDEWTLQENREAFARILFRPRILIDVSKIDMATTVLGFKISMPIMIAPSAMQKMAHPDGEYATARAASAAGTIMTLSSWATSSVEEVASTGPGIRFFQLYVYKDRRVVEQLVRRAERAGFKAIALTVDTPRLGRREADIKNRFVLPPFLTLKNFEGLELGKMDQASDSGLASYVAGQIDRTLSWKDVKWLQTITTLPILVKGVITAEDTRLAVENGAAGIIVSNHGARQLDYVPATISALEEVVKAARGQLPVFLDGGVRRGTDVFKALALGAAGVFIGRPVVFSLAAAGEAGVRNVLQMLRDEFELTMALSGCTSLADITRNHVITEADKLGVMPSRL
notes: co-expressed N-terminally 6xHis-tagged GLO1 (pYES3) and GLO4 (pYES2) in Saccharomyces cerevisiae, Ni-IDA purified; GLO4/GLO5 names may be swapped in databases
With B3, the Michaelis-Menten constant (Km) stood at 4.511 ± 0.307 mM in data set [5], 4.883 ± 0.321 mM in data set [6], 0.423 ± 0.038 mM in data set [7] and 5.227 ± 0.448 mM in data set [8].

B4: GLO3 (Oryza sativa Japonica Group) (protein)
chain: MELITNVSEYEQLAKQKLPKMIYDYYASGAEDQWTLKENREAFSRILFRPRILIDVSRINMATNVLGFNISMPIMIAPSAMQKMAHPEGELATARAASAAGTIMTLSSWSTSSVEEVNSAAPGIRFFQLYVYKDRNIVRQLVRRAELAGFKAIALTVDTPRLGRREADIKNRFNLPPHLVLKNFEALDLGKMDKTNDSGLASYVASQVDRSLSWTDVKWLQTITSLPILVKGVMTAEDTRLAVESGAAGIIVSNHGARQLDYVPATISCLEEVVREAKGRLPVFLDGGVRRGTDVFKALALGASGVFIGRPVLFSLAVDGEAGVRKVLQMLRDELELTMALSGCTSLAEITRNHVITDSDRIRRSRL
notes: complete ORF, N-terminal 6xHis tag kept, expressed in Saccharomyces cerevisiae INVSc1, Ni-IDA purified, subunit about 40 kDa
Consider B4, for which the Km is given as 2.762 ± 0.311 mM in data set [5], 1.799 ± 0.084 mM in data set [6], 0.470 ± 0.035 mM in data set [7] and 1.104 ± 0.056 mM in data set [8].

By Ki is commonly meant a dissociation constant, usually derived from enzyme kinetics or from competition with a known ligand. The Km is the concentration of substrate that gives half-maximal velocity.

(Values after paper PMC5549332 (BMC Plant Biology, 2017).)
